Reference: patent US20120302734A1 (COMMONWEALTH SCIENTIFIC AND INDUSTRIAL RESEARCH ORGANISATION, published 2012)

Target: the molecule itself
Test: dynamic light scattering after SDS removal, against 9.2 nm for the monomeric SDS-protein solution; self-association
Experimental: The AmelF3 honeybee silk protein was expressed into the inclusion bodies of E. coli. AmelF3 inclusion bodies were unfolded using equivalent dry weight of the detergent sodium dodecyl sulphate (SDS) to generate 2-4% monomeric protein solutions. Dynamic light scattering (DLS) measured the hydrodynamic diameter of particles in the protein-detergent solution diluted ten-fold in 100 mM NaCl as 9.2+/−0.1 nm (peak containing 98.2% of particle volume). The diameter of SDS micelles in 3% SDS solutions without protein under the same experimental conditions was a single peak at 5.5+/−0.2 nm. No SDS micelles were detected in the SDS—protein solutions confirming that the majority of the SDS was bound to the protein.
Proteins were refolded by removing SDS using KCl. […] The protein solutions were dialysed against water to reduce salt levels then concentrated by dialysis against PEG8000, resulting in 3-4% protein and 0.2-0.4% SDS concentration.

B1: Honeybee silk protein Xenospira3 (AmelF3), recombinant, without signal peptide (other)
chain: GVEEFKSSATEEVISKNLEVDLLKNVDTSAKRRENGAPVLGKNTLQSLEKIKTSASVNAKAAAVVKASALALAEAYLRASALSAAASAKAAAALKNAQQAQLNAQEKSLAALKAQSEEEAASARANAATAATQSALERAQASSRLATVAQNVASDLQKRTSTKAAAEAAATLRQLQDAERTKWSANAALEVSAAAAAAETKTTASSEAANAAAKKAAAIASDADGAERSASTEAQSAAKIESVAAAEGSANSASEDSRAAQLEASTAARANVAAAVGDGAIIGLGEEAGAAAQLLAQAKALAEVSSKSENIEDKKF
notes: The cloning primer may add an N-terminal Met
  binding result: binds
